Results from patent US20080152587A1 (Amgen, published 2008).
Numbering of substitutions follows the chain as printed.

B1: anti-uPAR monoclonal antibody 1.99.1 (antibody, V domains shown)
VH: EVQLVESGGGLIQPGGSLRLSCAASGFTVRSNYMSWVRQAPGKGLEWISVIYTGGSTYYADSVKGRFSISRDNSKNTLYLQMNSLRAEDTAVYYCAREGAVAGFDYWGQGTLVTVSS
VL: EIVMTQSPATLSVSPGERATLSCRASQSISSNLAWYQQKPGQAPRLLIYGASTRATGIPARFSGSGSGTEFTLTISSLQSEDFAVYYCQQYTNWPLTFGGGTKVEIK
B2: anti-uPAR monoclonal antibody 4.19.1 (antibody, V domains shown)
VH: EVQLVESGGGLIQPGGSLRLSCAASGFSVSSNYMNWVRQAPGKGLEWVSVIYTGGSTYYADSVKGRFTISRDNSKNTLYLQMNSLRAEDTAVYYCARDTYLYGMDVWGQGTTVTVSS
VL: B1 VL with R18S, A25T, I29V, A43T, T53A, I58V, T92Y
B3: anti-uPAR monoclonal antibody 4.12.1 (antibody, V domains shown)
VH: EVQLVESGGGLVQPGGSLRLSCAASGFTFSSYWMSWVRQAPGTGLDWVANINQDGSERYYVDSVKGRFTISRDNAKNSPHLQMNSLRAEDTAVYYCAREGSGGRYGGWYFDLWGRGTLVTVSS
VL: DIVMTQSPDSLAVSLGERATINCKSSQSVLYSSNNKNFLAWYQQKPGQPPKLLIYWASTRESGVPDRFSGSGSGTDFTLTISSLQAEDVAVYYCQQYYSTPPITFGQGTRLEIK

Experiments:
[1] = biological target: T1, mouse uPAR on the surface of NCTC L929 cells (mouse, UniProt P35456 24-298); assay: FACS, NCTC L929 mouse cells, mAb 6.25 µg/ml
T1 construct: whole, on cells; also called cell surface mouse uPAR
T1 sequence (looked up): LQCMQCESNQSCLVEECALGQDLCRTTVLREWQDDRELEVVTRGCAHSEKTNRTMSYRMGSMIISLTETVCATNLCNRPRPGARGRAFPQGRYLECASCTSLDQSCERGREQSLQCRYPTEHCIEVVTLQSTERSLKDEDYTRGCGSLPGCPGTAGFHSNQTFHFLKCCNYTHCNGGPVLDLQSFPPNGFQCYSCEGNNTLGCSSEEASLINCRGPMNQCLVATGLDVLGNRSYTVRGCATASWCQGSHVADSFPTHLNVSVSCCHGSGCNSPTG
Experimental: (§1) To make the mouse cross-reactivity results conclusive, direct binding of the mAbs to cell-bound mouse uPAR was measured using FACS analysis. The mouse cell line derived from the connective tissue, NCTC L929, was employed for FACS analysis. The harvested cells were resuspended at 50,000 cells/well using FACS buffer into a V-bottom plate which was put on ice. […] After washing, Cy5-labeled goat anti-human IgG Fc at 5 μg/ml and 7AAD at 5 μg/ml was added. The mixtures were incubated for 15 min on ice, washed and resuspended in cold FACS buffer for FACS analysis.

[2] = biological target: T2, soluble recombinant human uPAR/His6 (R&D Systems, Cat. # 807-UK-100) (human, UniProt Q03405 23-303); assay: low resolution Biacore, mAb captured by goat anti-human, hu-uPAR 312 nM;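 note: surface plasmon resonance on a CM5 chip with goat anti-human antibody surface made by amine coupling, each mAb from supernatant captured per flow cell, kinetics fitted including mass transport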
T2 construct: range 1-303; Bought protein; also called soluble uPAR; hu-uPAR
T2 sequence (Q03405 other isoform, or with tags, fused parts or gaps limits assumed, form in doubt): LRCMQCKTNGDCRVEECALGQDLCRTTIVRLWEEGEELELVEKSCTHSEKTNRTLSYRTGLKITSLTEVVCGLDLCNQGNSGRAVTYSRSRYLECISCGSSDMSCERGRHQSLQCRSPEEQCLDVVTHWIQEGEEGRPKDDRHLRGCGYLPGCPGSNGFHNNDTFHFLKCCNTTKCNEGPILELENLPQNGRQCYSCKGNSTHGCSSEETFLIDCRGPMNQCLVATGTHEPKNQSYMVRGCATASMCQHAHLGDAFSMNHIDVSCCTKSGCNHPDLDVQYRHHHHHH
Experimental: (§2) A high-density goat anti-human antibody surface over a CM5 Biacore™ chip was prepared using routine amine coupling. […] Each mAb was captured on a separate flow cell using a 30-second contact time at 10 μL/min followed by a 5-minute wash at a 100 μL/min flow rate for stabilization of the mAb baseline. […] All antigen samples were prepared in the running buffer.
A mass transport coefficient was used in fitting the data.

[3] = biological target: T2, soluble recombinant human uPAR/His6 …; assay: low resolution Biacore
Experimental: as §2

[4] = biological target: T3, human urokinase-type plasminogen activator receptor (uPAR, CD87), cell-bound (human, UniProt Q03405 23-305); assay: FACS competition with FITC-tc-uPA, line material
T3 construct: whole, on cells; On B300.19 or L929 transfectants (full length cDNA), or native on U937 and PC-3 cells
T3 sequence (Q03405 23-305): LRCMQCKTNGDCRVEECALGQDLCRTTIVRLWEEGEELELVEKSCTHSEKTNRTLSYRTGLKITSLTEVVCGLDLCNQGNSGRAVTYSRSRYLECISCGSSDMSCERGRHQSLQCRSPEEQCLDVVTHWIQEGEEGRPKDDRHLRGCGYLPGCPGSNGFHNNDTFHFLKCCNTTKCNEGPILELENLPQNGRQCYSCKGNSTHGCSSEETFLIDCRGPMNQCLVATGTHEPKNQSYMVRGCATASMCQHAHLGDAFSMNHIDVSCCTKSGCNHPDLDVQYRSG
Text: (§3) Briefly, murine fibroblast L929 cells (ATCC) were transfected to express human uPAR.

[5] = biological target: T3, human urokinase-type plasminogen …; assay: cell-based or functional assay
[6] = biological target: T3, human urokinase-type plasminogen …; assay: FACS, cells expressing human uPAR, line material
[7] = biological target: T1, mouse uPAR on the surface of NCTC L929 …; assay: FACS, NCTC L929 mouse cells
Experimental: as §1

[8] = biological target: T3, human urokinase-type plasminogen …; assay: cell-based or functional assay; remark: listed apart in the source
[9] = biological target: T4, cynomolgus monkey uPAR, cell-bound (cynomolgus monkey, UniProt Q9GK78 23-305); assay: FACS, GeoMean; cynomolgus uPAR expressed on 293T cells; antibody concentration not given
T4 construct: whole, on cells; also called cyno-uPAR
T4 sequence (Q9GK78 23-305): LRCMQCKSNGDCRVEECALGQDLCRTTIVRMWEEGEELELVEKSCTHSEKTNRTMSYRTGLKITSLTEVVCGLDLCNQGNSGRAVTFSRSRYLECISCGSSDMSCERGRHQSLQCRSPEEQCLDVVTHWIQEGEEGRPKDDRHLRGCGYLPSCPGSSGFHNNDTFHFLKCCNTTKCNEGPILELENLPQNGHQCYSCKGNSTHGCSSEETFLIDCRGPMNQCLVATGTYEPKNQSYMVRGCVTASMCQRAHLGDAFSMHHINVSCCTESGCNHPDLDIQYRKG

[10] = biological target: T3, human urokinase-type plasminogen …; assay: FACS, U937 cells, mAb 5 µg/ml on ice, alexa647 goat anti-human F(ab), not stripped
Experimental: A cell suspension containing 100,000 cells was pipetted into each well of a V-bottom plates in duplicate. Two V-bottom plates were prepared, one to be kept at 37° C. during internalization with antibody complex, and the other to be incubated at 4° C. Each of the eight uPAR mAbs was incubated with U937 cells at 5 μg/ml on ice for 15 min. Incubation on ice was necessary to prevent internalization of the primary mAbs. The cells were then washed with cold FACS buffer. Cells were subsequently incubated on ice in 100 μl of 5 μg/ml alexa647-labelled goat anti-humanF(ab) (Invitrogen catalogue number A21249) in cold FACS buffer for 15 min. This allowed the goat FAB bind to the bound uPAR mAbs without permitting any internalization. After a 15 minute incubation on ice, one plate was kept on ice, while the other plate was incubated at 37° C. for 1 hour.
Following the 1 hr incubation with the mAb-FAB complex, the cells were washed twice with cold 5% FACS buffer, and 200 μl of Tris(2-carboxyethyl)phosphine HCl (TCEP) was added to each well as a stripping agent. The plates were both incubated with TCEP on ice for 1 hour, followed by washing and resuspending with FACS buffer. 4 μl of 7-Amino-Actinomycin D (7AAD) was added to each well, followed by 10 min incubation on ice before FACS analysis was conducted.

[11] = biological target: T5, murine uPAR (form not stated) (mouse, UniProt P35456 24-297, limits assumed); assay: summary column Murine X-reactivity
T5 construct: also called mouse uPAR
T5 sequence (looked up): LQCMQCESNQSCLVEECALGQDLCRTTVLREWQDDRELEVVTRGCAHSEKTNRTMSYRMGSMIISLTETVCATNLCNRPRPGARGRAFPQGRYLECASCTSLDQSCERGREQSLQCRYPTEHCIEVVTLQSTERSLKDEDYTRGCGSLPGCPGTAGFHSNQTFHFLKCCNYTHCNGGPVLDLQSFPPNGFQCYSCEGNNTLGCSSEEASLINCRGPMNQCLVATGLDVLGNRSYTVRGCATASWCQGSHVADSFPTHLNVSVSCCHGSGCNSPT

[12] = biological target: T2, soluble recombinant human uPAR/His6 …; assay: limited antigen ELISA, uPAR coat 20 ng/mL, sample 1:25
Experimental: (§4) ELISA plates were coated with a lower amount ofuPAR in comparison with the High Antigen Quantitation assay described below (320, 160, 80, 40 and 20 ng/mL). Samples containing one concentration of antibody (Ab) (1:25 dilution) were incubated overnight to allow Ab binding to approach equilibrium.

[13] = biological target: T3, human urokinase-type plasminogen …; assay: FACS, B300.19 cells expressing human uPAR, anti-human gamma Cy5
[14] = biological target: T3, human urokinase-type plasminogen …; assay: FACS competition, FITC-tc-uPA on L929 cells expressing human uPAR, supernatant 1:2
Text: as §3

[15] = biological target: T6, human Ly6e with a myc tag, expressed in HEK293T cells (human, UniProt Q16553 21-101); assay: FACS, HEK293T cells expressing Ly6e, supernatant 1:2
T6 construct: whole, on cells; not shown: myc tag fused on the molecule
T6 sequence (looked up): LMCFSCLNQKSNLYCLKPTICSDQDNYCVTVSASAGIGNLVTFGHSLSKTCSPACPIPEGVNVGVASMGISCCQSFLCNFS

[16] = biological target: T2, soluble recombinant human uPAR/His6 …; assay: limited antigen ELISA, uPAR coat 80 ng/mL, sample 1:25
Experimental: as §4

Binder | X Geo Mean [1] | Kd [2] | koff [2] | kon [2] | Kd [3] | Human uPAR/uPA binding inhibition (%, line material) [4] | Plasminogen activation inhibition (IC50, ug/ml) [5] | Ab to cell bound Ag (line material, FACS) [6] | binding result [7] | inhibition of plasminogen activation on U937 cells [8] | binding result [9] | geo mean cold - TCEP [10] | binding result [11] | LA at 20 ng/ml [12] | gCy5 Geo Mean Pos Cells [13] | uPA/uPAR binding Inhibition % [14] | binding result [15] | LA at 80 ng/ml [16]
B1 | 11.7 | 3.5 nM | 0.00042 s⁻¹ | 120000 M⁻¹ s⁻¹ | 3.5 nM | 78% | 0.066 µg/mL | 514 | no binding (tested: 6.25 µg/ml) | > 90% | binds | 42.5 | no binding |  |  |  |  | 
B2 | 9.59 | 2.7 nM | 0.00032 s⁻¹ | 120000 M⁻¹ s⁻¹ | 2.7 nM | 77% | 0.056 µg/mL |  | no binding (tested: 6.25 µg/ml) | > 90% | binds | 46 | no binding | 0.16 | 412 | 77% | no binding (tested: GeoMean ratio 1.95) | 1.03
B3 | 8.97 | 20.6 nM | 0.0013 s⁻¹ | 63000 M⁻¹ s⁻¹ | 20.6 nM | 71% | 0.067 µg/mL |  | no binding (tested: 6.25 µg/ml) | > 90% | binds | 33.4 | no binding | 0.06 | 317 | 71% | no binding (tested: GeoMean ratio 1.95) | 0.21
